# Patent publication US20150307603A1 (MODIQUEST B V, published 2015)
# Non-standard residues stand in square brackets, D forms with d. No end group written: not given here. Cit = NC(=O)NCCC[C@H](N)C(=O)O
# T1: peptide no. 5 (human histone 2A) (human, also: biotin-labelled)
# T1 construct: also called peptide 5
# T1 peptide: VGRVH[Cit]LLRKGN
# T2: peptide no. 1 (human histone 2A) (human, also: biotin-labelled)
# T2 construct: also called peptide 1; AAASGXGKQGGK
# T2 peptide: AAASG[Cit]GKQGGK
# T3: peptide no. 7 (human histone 2A) (human, also: biotin-labelled)
# T3 construct: also called peptide 7
# T3 peptide: GNYSE[Cit]VGAGAP
# T4: peptide no. 6 (human histone 2A) (human, also: biotin-labelled)
# T4 construct: also called peptide 6
# T4 peptide: VHRLL[Cit]KGNYSE
# T5: peptide no. 8 (human histone 2A) (human, also: biotin-labelled)
# T5 construct: also called peptide 8
# T5 peptide: AGNAA[Cit]DNKKTR
# T6: peptide no. 4 (human histone 2A) (human, also: biotin-labelled)
# T6 construct: also called peptide 4
# T6 peptide: QFPVG[Cit]VHRLLR
# T7: peptide no. 9 (human histone 2A) (human, also: biotin-labelled)
# T7 construct: also called peptide 9
# T7 peptide: DNKKT[Cit]IIPRHL
# T8: peptide no. 10 (human histone 2A) (human, also: biotin-labelled)
# T8 construct: also called peptide 10
# T8 peptide: TRIIP[Cit]HLQLAI
# T9: peptide no. 3 (human histone 2A) (human, also: biotin-labelled)
# T9 construct: also called peptide 3
# T9 peptide: KSRSS[Cit]AGLQFP
# T10: peptide no. 11 (human histone 2A) (human, also: biotin-labelled)
# T10 construct: also called peptide 11
# T10 peptide: LQLAI[Cit]NDEELN
# T11: peptide no. 12 (human histone 2A) (human, also: biotin-labelled)
# T11 construct: also called peptide 12
# T11 peptide: NKLLG[Cit]VTIAQG
# T12: peptide no. 2 (human histone 2A) (human, also: biotin-labelled)
# T12 construct: also called peptide 2
# T12 peptide: AKAKS[Cit]SSRAGL
# T13: huFibα XG (human, X at position 8 = citrulline; biotin-labelled)
# T13 peptide: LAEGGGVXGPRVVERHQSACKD
# T14: msFibβ XG (mouse, also: biotin-labelled)
# T14 construct: also called mouse fibrinogen β peptide
# T14 peptide: EPTDSLDA[Cit]GHRPVDRR
# T15: msVim XS/XL (mouse, also: biotin-labelled)
# T15 construct: also called mouse vimentin peptide
# T15 peptide: YVT[Cit]SSAV[Cit]L[Cit]SSVP
# T16: msFibα XG (mouse, X at position 8 = citrulline; biotin-labelled)
# T16 peptide: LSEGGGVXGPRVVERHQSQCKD
# T17: msFibα XH (mouse, X at position 15 = citrulline; biotin-labelled)
# T17 peptide: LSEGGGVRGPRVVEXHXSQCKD
# T18: huFibα XH (human, X at position 15 = citrulline; biotin-labelled)
# T18 peptide: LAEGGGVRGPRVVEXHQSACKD
# B1: RhmAb2.102 (antibody, human IgG1, lambda)
# heavy: not shown
# light: QSVLTQPPSMSAAPGQKVTISCSGSSSNIGNNYVSWYQQVPGTAPKLLIYDDNKRPSGIPGRFSGSKSATSATLGITGLQAGDEADYYCGSWDDNLSVVLFGGGTKLTVLGQPKAAPSVTLFPPSSEELQANKATLVCLISDFYPGAVTVAWKADSSPVKAGVETTTPSKQSNNKYAASSYLSLTPEQWKSHRSYSCQVTHEGSTVEKTVAPTECS
# notes: Human IgG1 lambda; also called Rhm2.102
# Tests used:
# [1] = biological target: T19, huPAD2-deiminated human recombinant histone 3 (human); assay: ELISA, Ab 0.000128 ug/well
# T19 construct: also called H3/p2; histone 3/p2
# Description: (§1) The resulting OD (y-axis) is a measure for antibody binding. H1-recombinant histone 1; H1/p2-huPAD2 recombinant histone 1; H1/p4-huPAD4 recombinant histone 1, and so forth (x-axis).
# [2] = biological target: T20, huPAD2-deiminated human recombinant histone 2B (human); assay: ELISA, Ab 0.000128 ug/well
# T20 construct: also called H2B/p2
# Description: as §1
# [3] = biological target: T1, peptide no. 5 (human histone 2A); assay: ELISA, Ab 0.016 ug/well
# Procedure: (§2) Biotin and citrulline-containing peptides derived from histone 2A were immobilized on NEUTRAVIDIN®-coated 96-well ELISA plates (0.3 μg/well). CFC-1 and CFC-0 were coated at the same concentration and served as positive and negative controls, respectively, for specific anti-citrulline reactivity and as coating controls. Non-coated wells were used to test for aspecific binding of the antibodies. […] Detection of bound anti-citrulline antibodies was performed by incubating the wells with rabbit anti-human HRP (1:2000) for 1 hour at RT followed by incubation with TMB substrate. The resulting OD (y-axis) is a measure for antibody binding.
# [4] = biological target: T2, peptide no. 1 (human histone 2A); assay: ELISA, Ab 0.016 ug/well
# Procedure: as §2
# [5] = biological target: T3, peptide no. 7 (human histone 2A); assay: ELISA, Ab 0.016 ug/well
# Procedure: as §2
# [6] = biological target: T4, peptide no. 6 (human histone 2A); assay: ELISA, Ab 0.016 ug/well
# Procedure: as §2
# [7] = biological target: T5, peptide no. 8 (human histone 2A); assay: ELISA, Ab 0.016 ug/well
# Procedure: as §2
# [8] = biological target: T21, CFC-1; assay: ELISA, Ab 0.016 ug/well
# T21 construct: Positive control for anti-citrulline reactivity; also called cfc1 XG; Cfc1-peptide
# Procedure: as §2
# [9] = biological target: T6, peptide no. 4 (human histone 2A); assay: ELISA, Ab 0.016 ug/well
# Procedure: as §2
# [10] = biological target: T7, peptide no. 9 (human histone 2A); assay: ELISA, Ab 0.016 ug/well
# Procedure: as §2
# [11] = biological target: T8, peptide no. 10 (human histone 2A); assay: ELISA, Ab 0.016 ug/well
# Procedure: as §2
# [12] = biological target: T9, peptide no. 3 (human histone 2A); assay: ELISA, Ab 0.016 ug/well
# Procedure: as §2
# [13] = biological target: T10, peptide no. 11 (human histone 2A); assay: ELISA, Ab 0.016 ug/well
# Procedure: as §2
# [14] = biological target: T11, peptide no. 12 (human histone 2A); assay: ELISA, Ab 0.016 ug/well
# Procedure: as §2
# [15] = biological target: T12, peptide no. 2 (human histone 2A); assay: ELISA, Ab 0.016 ug/well
# Procedure: as §2
# [16] = biological target: T1, peptide no. 5 (human histone 2A); assay: ELISA, Ab 2 ug/well
# Procedure: as §2
# [17] = biological target: T2, peptide no. 1 (human histone 2A); assay: ELISA, Ab 2 ug/well
# Procedure: as §2
# [18] = biological target: T3, peptide no. 7 (human histone 2A); assay: ELISA, Ab 2 ug/well
# Procedure: as §2
# [19] = biological target: T7, peptide no. 9 (human histone 2A); assay: ELISA, Ab 2 ug/well
# Procedure: as §2
# [20] = biological target: T10, peptide no. 11 (human histone 2A); assay: ELISA, Ab 2 ug/well
# Procedure: as §2
# [21] = biological target: T21, CFC-1; assay: ELISA, Ab 10 ug/well
# Procedure: as §2, with “fibrinogen and vimentin” for “histone 2A”
# (§3) Biotin-labeled and citrulline-containing fibrinogen and vimentin peptides (Table 5) were also tested for reactivity with the therapeutic antibodies. Peptides were coated on 96-well NEUTRAVIDIN®-ELISA plates.
# [22] = biological target: T13, huFibα XG; assay: ELISA, Ab 10 ug/well
# Procedure: as §2, with “fibrinogen and vimentin” for “histone 2A”
# as §3
# [23] = biological target: T14, msFibβ XG; assay: ELISA, Ab 10 ug/well
# Procedure: as §2, with “fibrinogen and vimentin” for “histone 2A”
# as §3
# [24] = biological target: T15, msVim XS/XL; assay: ELISA, Ab 10 ug/well
# Procedure: as §2, with “fibrinogen and vimentin” for “histone 2A”
# as §3
# [25] = biological target: T16, msFibα XG; assay: ELISA, Ab 10 ug/well
# Procedure: as §2, with “fibrinogen and vimentin” for “histone 2A”
# as §3
# [26] = biological target: T17, msFibα XH; assay: ELISA, Ab 10 ug/well
# Procedure: as §2, with “fibrinogen and vimentin” for “histone 2A”
# as §3
# [27] = biological target: T18, huFibα XH; assay: ELISA, Ab 10 ug/well
# Procedure: as §2, with “fibrinogen and vimentin” for “histone 2A”
# as §3
binder,measurement,setting,value
B1,OD,[1],0.066 OD450
same,OD,[2],0.051 OD450
same,OD,[3],0.065 OD450
same,OD,[4],0.843 OD450
same,OD,[5],0.061 OD450
same,OD,[6],0.075 OD450
same,OD,[7],0.063 OD450
same,OD,[8],1.46 OD450
same,OD,[9],0.084 OD450
same,OD,[10],0.064 OD450
same,OD,[11],0.066 OD450
same,OD,[12],0.07 OD450
same,OD,[13],0.069 OD450
same,OD,[14],0.057 OD450
same,OD,[15],0.065 OD450
same,OD,[16],0.111 OD450
same,OD,[17],3.05 OD450
same,OD,[18],0.059 OD450
same,OD,[19],0.063 OD450
same,OD,[20],0.067 OD450
same,OD,[21],3.89 OD450
same,OD,[22],2.73 OD450
same,OD,[23],3.8 OD450
same,OD,[24],3.69 OD450
same,OD,[25],3.03 OD450
same,OD,[26],0.154 OD450
same,OD,[27],0.179 OD450
